Laboratory results taken from US20240158497A1.
“And” between values parts separate entries of the source, which are not always exact repeats. Identical values can stand only once. Values belong to the substance of their own block, whether it stands above or below them.

Key:
[1] = molecular target: full length human GP130 (L2V natural variant) on HEK293/Stat3-luc/gp130-2X Sort cells (human) (UniProt P40189); test: FACS, secondary antibody alone on HEK293/gp130 2X Sort cells
[2] = molecular target: extracellular domain of human LEPR, GPI-anchored, on HEK293/hLEPR-GPI cells (human) (UniProt P48357); test: FACS, secondary antibody alone on HEK293/hLEPR-GPI cells, no Leptin
[3] = molecular target: extracellular domain of human LEPR, GPI-anchored, on HEK293/hLEPR-GPI cells (human) (UniProt P48357); test: FACS, secondary antibody alone on HEK293/hLEPR-GPI cells, 1 µM Leptin
[4] = molecular target: mutant human LEPR (Y1141F) on HEK293.STAT3.Luc.GP130.hLEPR (Y1141F) cells (human) (UniProt P48357); test: cell-based or functional assay
[5] = molecular target: wild-type human GP130 on HEK293.STAT3.Luc.GP130 reporter cells (human) (UniProt P40189); test: cell-based or functional assay
[6] = molecular target: full length human GP130 (L2V natural variant) on HEK293/Stat3-luc/gp130-2X Sort cells (human) (UniProt P40189); test: FACS, 200 nM antibody on HEK293/gp130 2X Sort cells
[7] = molecular target: extracellular domain of human LEPR, GPI-anchored, on HEK293/hLEPR-GPI cells (human) (UniProt P48357); test: FACS, 200 nM antibody on HEK293/hLEPR-GPI cells, no Leptin
[8] = molecular target: extracellular domain of human LEPR, GPI-anchored, on HEK293/hLEPR-GPI cells (human) (UniProt P48357); test: FACS, 200 nM antibody on HEK293/hLEPR-GPI cells, 1 µM Leptin
[9] = molecular target: gp130 expressed endogenously on IMR-32/STAT3-Luc cells (human) (UniProt P40189); test: cell-based or functional assay
gp130 expressed endogenously on IMR-32/STAT3-Luc cells (human), sequence (P40189 23-918): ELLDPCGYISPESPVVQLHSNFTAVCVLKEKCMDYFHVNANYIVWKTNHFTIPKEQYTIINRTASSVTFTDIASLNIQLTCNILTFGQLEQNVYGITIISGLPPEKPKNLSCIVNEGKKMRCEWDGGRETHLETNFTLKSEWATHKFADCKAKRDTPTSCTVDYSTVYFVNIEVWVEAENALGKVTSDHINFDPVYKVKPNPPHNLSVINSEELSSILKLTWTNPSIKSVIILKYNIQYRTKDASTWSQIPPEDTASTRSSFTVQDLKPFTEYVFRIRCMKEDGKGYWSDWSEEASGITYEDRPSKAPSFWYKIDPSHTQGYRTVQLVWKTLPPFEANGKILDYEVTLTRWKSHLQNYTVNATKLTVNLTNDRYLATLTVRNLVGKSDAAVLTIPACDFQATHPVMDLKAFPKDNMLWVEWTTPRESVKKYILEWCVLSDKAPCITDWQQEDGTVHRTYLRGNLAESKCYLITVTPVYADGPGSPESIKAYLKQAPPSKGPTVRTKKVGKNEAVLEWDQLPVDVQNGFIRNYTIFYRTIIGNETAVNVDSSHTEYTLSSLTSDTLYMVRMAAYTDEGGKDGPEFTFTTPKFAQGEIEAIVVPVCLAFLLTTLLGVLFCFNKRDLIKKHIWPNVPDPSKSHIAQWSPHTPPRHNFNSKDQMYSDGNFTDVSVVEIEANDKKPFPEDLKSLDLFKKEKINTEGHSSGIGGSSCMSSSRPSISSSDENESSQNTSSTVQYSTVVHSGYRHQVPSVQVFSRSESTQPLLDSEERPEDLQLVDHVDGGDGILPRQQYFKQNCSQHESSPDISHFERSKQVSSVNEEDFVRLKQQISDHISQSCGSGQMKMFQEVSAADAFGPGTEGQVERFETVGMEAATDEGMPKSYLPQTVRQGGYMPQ

extracellular domain of human LEPR, GPI-anchored, on HEK293/hLEPR-GPI cells (human), sequence (P48357 22-839 limits assumed): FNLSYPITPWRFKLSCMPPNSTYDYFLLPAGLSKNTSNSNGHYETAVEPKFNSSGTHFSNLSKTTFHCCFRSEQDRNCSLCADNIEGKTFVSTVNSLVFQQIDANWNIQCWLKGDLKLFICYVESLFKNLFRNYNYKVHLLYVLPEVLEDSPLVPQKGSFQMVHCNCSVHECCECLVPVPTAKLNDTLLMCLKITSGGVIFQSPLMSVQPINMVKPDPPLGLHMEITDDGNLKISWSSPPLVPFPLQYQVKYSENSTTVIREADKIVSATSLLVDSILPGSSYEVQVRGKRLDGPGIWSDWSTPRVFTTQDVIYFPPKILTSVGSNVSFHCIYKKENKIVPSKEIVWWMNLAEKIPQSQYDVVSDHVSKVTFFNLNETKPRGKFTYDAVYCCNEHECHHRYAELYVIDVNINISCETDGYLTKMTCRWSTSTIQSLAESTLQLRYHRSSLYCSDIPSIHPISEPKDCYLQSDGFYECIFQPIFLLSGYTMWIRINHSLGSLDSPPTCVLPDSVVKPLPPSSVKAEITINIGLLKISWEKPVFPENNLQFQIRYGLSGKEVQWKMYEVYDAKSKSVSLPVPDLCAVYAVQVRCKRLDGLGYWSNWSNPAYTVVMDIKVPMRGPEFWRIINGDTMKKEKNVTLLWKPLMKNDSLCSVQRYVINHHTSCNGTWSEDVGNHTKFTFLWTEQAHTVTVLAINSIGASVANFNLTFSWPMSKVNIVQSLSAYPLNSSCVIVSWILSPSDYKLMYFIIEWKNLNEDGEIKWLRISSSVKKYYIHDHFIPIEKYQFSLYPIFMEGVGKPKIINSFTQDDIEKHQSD
mutant human LEPR (Y1141F) on HEK293.STAT3.Luc.GP130.hLEPR (Y1141F) cells (human), sequence (P48357 22-1165 Y1141F): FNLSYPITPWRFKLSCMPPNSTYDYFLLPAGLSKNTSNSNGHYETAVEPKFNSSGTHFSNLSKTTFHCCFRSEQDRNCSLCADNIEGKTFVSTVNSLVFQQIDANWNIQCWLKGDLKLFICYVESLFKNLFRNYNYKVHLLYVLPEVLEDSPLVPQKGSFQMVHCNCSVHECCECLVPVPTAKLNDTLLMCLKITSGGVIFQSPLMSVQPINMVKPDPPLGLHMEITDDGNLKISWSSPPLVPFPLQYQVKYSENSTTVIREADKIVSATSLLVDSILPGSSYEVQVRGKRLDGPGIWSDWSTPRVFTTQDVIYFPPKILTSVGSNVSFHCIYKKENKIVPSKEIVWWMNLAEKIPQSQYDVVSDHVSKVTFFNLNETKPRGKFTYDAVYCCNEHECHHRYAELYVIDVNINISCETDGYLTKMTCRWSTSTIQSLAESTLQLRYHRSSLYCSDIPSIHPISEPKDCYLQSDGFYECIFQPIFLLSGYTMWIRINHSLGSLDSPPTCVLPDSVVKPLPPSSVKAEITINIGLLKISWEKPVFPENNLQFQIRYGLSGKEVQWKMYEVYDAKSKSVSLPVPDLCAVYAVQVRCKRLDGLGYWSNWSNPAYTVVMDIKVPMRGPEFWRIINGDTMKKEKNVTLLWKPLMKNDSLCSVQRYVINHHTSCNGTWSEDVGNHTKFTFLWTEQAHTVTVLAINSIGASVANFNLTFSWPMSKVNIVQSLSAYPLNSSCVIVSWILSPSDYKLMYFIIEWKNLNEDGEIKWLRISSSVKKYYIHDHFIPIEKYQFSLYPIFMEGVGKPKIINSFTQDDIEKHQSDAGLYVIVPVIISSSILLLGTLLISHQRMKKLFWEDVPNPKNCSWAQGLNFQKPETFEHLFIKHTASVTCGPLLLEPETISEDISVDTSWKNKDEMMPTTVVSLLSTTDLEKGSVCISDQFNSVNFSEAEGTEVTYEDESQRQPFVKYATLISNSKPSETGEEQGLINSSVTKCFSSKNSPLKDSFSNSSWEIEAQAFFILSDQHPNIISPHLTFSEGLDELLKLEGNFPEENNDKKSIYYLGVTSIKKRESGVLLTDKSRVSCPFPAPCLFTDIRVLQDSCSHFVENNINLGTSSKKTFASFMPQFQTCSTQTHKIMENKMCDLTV
wild-type human GP130 on HEK293.STAT3.Luc.GP130 reporter cells (human), sequence (P40189 23-918): as the sequence (P40189 23-918) above

Binding Ratio, normalized to unstained sample (FL4-A) [1]: 1 fold
Binding Ratio, normalized to unstained sample (FL4-A) [2]: 3 fold
Binding Ratio, normalized to unstained sample (FL4-A) [3]: 2 fold
Substance: Alexa Fluor-647 conjugated secondary antibody (Jackson ImmunoResearch Laboratories Inc., #109-607-003)

Assay Buffer, % activity [4]: 0%
RLU, Assay Buffer (no soluble protein) [4]: 12200 RLU and 12100 RLU
Assay Buffer, % activity [5]: 0%
RLU, Assay Buffer (no soluble protein) [5]: 12200 RLU and 12100 RLU
Binding Ratio, normalized to unstained sample (FL4-A) [6]: 2 fold
Binding Ratio, normalized to unstained sample (FL4-A) [7]: 3 fold
Binding Ratio, normalized to unstained sample (FL4-A) [8]: 3 fold
Substance: Isotype Control (antibody)

EC50 (M), STAT3-luciferase activation of HEK293.STAT3.Luc.GP130.hLEPR (Y1141F) cells [5]: 5.92e-10 M
EC50 (M), STAT3-luciferase activation of HEK293.STAT3.Luc.GP130.hLEPR (a) cells [5]: 1.21e-10 M
Percentage activation as compared to hOSM [5]: 100%
Percentage maximum activation as compared to hOSM [5]: 100%
Substance: human OSM (R&D Systems, #295-OM/CF) (from UniProt P13725 26-221) (ligand)

EC50 of activation of IMR-32/STAT3-luc cells (STAT3-luciferase) [9]: 0.054 nM
Substance: human Oncostatin M (from UniProt P13725 26-221) (ligand)
